Holding throughout (conditions): both partners purified
Assay [1] addresses T1, selenomethionine-substituted Ups1 (Saccharomyces cerevisiae, UniProt Q05776 1-175, selenomethionine-substituted).
T1 construct: Ups1, Saccharomyces cerevisiae, full length, selenomethionine in place of methionine; also called SeMet-labeled Ups1; Ups1A; source: selenomethionine-derived Ups1/Mdm35 complex; expression of the SeMet form not described
T1 sequence (looked up): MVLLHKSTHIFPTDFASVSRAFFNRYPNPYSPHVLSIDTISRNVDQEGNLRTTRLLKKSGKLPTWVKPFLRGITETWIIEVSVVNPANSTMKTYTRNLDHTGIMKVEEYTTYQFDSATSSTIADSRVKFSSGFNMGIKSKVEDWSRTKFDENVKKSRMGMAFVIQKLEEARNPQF
The assay can be described thus: crystal structure; selenomethionine-substituted Ups1/Mdm35, SAD, 2.9 Å; hanging drop, 16 °C, 8% tacsimate pH 5.0, 20% PEG3350, sodium thiocyanate.

The next assay concerns the target T2, Ups1-2E mutant (Saccharomyces cerevisiae, UniProt Q05776 1-175, K140E | R146E).
T2 construct: Ups1, Saccharomyces cerevisiae, mutant of the full-length wild-type construct; limits not restated for the mutant; also called K140E/R146E; source: gene synthesized (Beijing SYKM); E. coli Trans B, purified with Mdm35
T2 sequence (looked up): T1 sequence (looked up) with K140E, R146E
Description: co-sedimentation; liposome co-sedimentation: 20 μM Ups1/Mdm35 or mutants with DOPC/DOPA = 80/20 liposomes (8 mM), 20 mM Tris-HCl pH 7.5, 150 mM NaCl, 1 mM EDTA, 25 °C, 30 min; 250,000 g; Mdm35 in the pellet taken as complexed with liposome-bound Ups1.

The next assay addresses T3, Ups1-3E mutant (Saccharomyces cerevisiae, UniProt Q05776 1-175, K140E | R146E | K154E).
T3 construct: Ups1, Saccharomyces cerevisiae, mutant of the full-length wild-type construct; limits not restated for the mutant; also called K140E/R146E/K154E; source: gene synthesized (Beijing SYKM); E. coli Trans B, purified with Mdm35
T3 sequence (looked up): T1 sequence (looked up) with K140E, R146E, K154E
The description is as above.

A further assay has as its target T4, Ups1-4E mutant (Saccharomyces cerevisiae, UniProt Q05776 1-175, K140E | R146E | K154E | K166E).
T4 construct: Ups1, Saccharomyces cerevisiae, mutant of the full-length wild-type construct; limits not restated for the mutant; also called K140E/R146E/K154E/K166E; source: gene synthesized (Beijing SYKM); E. coli Trans B, purified with Mdm35
T4 sequence (looked up): T1 sequence (looked up) with K140E, R146E, K154E, K166E
The description is as above.

The target of a further assay is T5, Ups1 F69L mutant (Saccharomyces cerevisiae, UniProt Q05776 1-175, F69L).
T5 construct: Ups1, Saccharomyces cerevisiae, mutant of the full-length wild-type construct; limits not restated for the mutant; source: gene synthesized (Beijing SYKM); E. coli Trans B, purified with Mdm35
T5 sequence (looked up): T1 sequence (looked up) with F69L
The description is as above.

The target in assay [2] is T6, Ups1 (N-terminal 6x His-tagged full-length Ups1) (Saccharomyces cerevisiae, UniProt Q05776 1-175).
T6 construct: Ups1, Saccharomyces cerevisiae, full length, amplified from genomic DNA; Always handled as the co-expressed complex with Mdm35 or an Mdm35 truncation; also called WT; wild-type Ups1/Mdm35 (Ups1 chain); source: E. coli Trans B, co-expressed with Mdm35 from pETDuet-1, purified (Ni-chelated Sepharose, Superdex 75)
T6 sequence (looked up): T1 sequence (looked up)
The assay can be described thus: SEC; gel filtration of the Ups1/Mdm35 truncation mutants (Supplementary Fig. 8a). In general terms: Size exclusion chromatography separates by hydrodynamic size, large species first.

From paper PMC7447767, “Molecular mechanism of mitochondrial phosphatidate transfer by Ups1” (Communications Biology, 2020) come the findings set out here.

Changes are numbered by the printed parent chain.

B1: selenomethionine-substituted Mdm35 (natural protein, Saccharomyces cerevisiae, UniProt O60200 1-86, looked up)
chain: MGNIMSASFAPECTDLKTKYDSCFNEWYSEKFLKGKSVENECSKQWYAYTTCVNAALVKQGIKPALDEAREEAPFENGGKLKEVDK
modifications: selenomethionine-substituted
notes: Mdm35, Saccharomyces cerevisiae, full length, selenomethionine in place of methionine; also called SeMet-labeled Mdm35; Mdm35A; source: selenomethionine-derived Ups1/Mdm35 complex; expression of the SeMet form not described
Take B1: the binding result in assay [1] is reported as “binds”.

B2: Mdm35 (full-length) (natural protein, Saccharomyces cerevisiae, UniProt O60200 1-86, looked up)
chain: B1 chain
notes: Mdm35, Saccharomyces cerevisiae, full length, amplified from genomic DNA; Two disulfide bridges (C13-C52 and C23-C42) between the αA and αB helices are seen in the structure; also called WT; wild-type Ups1/Mdm35 (Mdm35 chain); source: E. coli Trans B, co-expressed with His-tagged Ups1 from pETDuet-1, purified (Ni-chelated Sepharose, Superdex 75)
Regarding B2, the binding result with Ups1-2E mutant, in the assay with Ups1-3E mutant, with Ups1-4E mutant and with Ups1 F69L mutant was “binds” in each case.

B3: Mdm35ΔC5 (domain or fragment, Saccharomyces cerevisiae, UniProt O60200 1-81, looked up)
chain: MGNIMSASFAPECTDLKTKYDSCFNEWYSEKFLKGKSVENECSKQWYAYTTCVNAALVKQGIKPALDEAREEAPFENGGKL
notes: Mdm35, Saccharomyces cerevisiae, lacking the five C-terminal residues K82–K86; Limit worked out from the stated deletion K82–K86; also called Ups1/Mdm35ΔC5 (Mdm35 chain); source: gene synthesized (Beijing SYKM); E. coli Trans B, purified with Ups1
Consider B3, for which the binding result in assay [2] is “binds”.

B4: Mdm35ΔC14 (domain or fragment, Saccharomyces cerevisiae, UniProt O60200 1-72, looked up)
chain: MGNIMSASFAPECTDLKTKYDSCFNEWYSEKFLKGKSVENECSKQWYAYTTCVNAALVKQGIKPALDEAREE
notes: Mdm35, Saccharomyces cerevisiae, lacking the 14 C-terminal residues A73–K86; Limit worked out from the stated deletion A73–K86; also called Ups1/Mdm35ΔC14 (Mdm35 chain); source: gene synthesized (Beijing SYKM); E. coli Trans B, purified with Ups1
Consider B4, for which the binding result in assay [2] is “binds”.
